Measurements: the RNAGym collection of RNA variant scans (doi:10.1073/pnas.2313332121)

B1: TPR t1 (parent)
chain: GACCAAUCUGCCCUCAGAGCUCGAGAACAUCUUCGGAUGCAGAGGAGGCAGGCUUCGGUGGCGCGAUAGCGCCAACGUCCUCAACCUCCAAUGCAUCCCACCACAUGAUGAUGCCUGAAGAGCCUUGGUUUUUUG

Variants of: B1
Assay: polymerase ribozyme fitness, log enrichment relative to wild type (log ratio); higher = more active; in vitro selection for triplet polymerase activity
How it was run: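 Frozen incubation at −7 °C formed the core of a single, triplicate in vitro selection round applied to PCR-built, transcribed mutant libraries of each subunit of a heterodimeric triplet polymerase ribozyme. Extended constructs were gel-excised, captured with streptavidin beads and amplified by RT-PCR, and input and output libraries were Illumina-sequenced with a filter of ≥10 input reads and ≥1 read per output. Fitness is the logarithm of genotype enrichment relative to wild-type enrichment, with inverse-variance-weighted replicate averaging, and the logarithm is base 2.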

Variant | polymerase ribozyme fitness (log ratio)
GACCAAUCUGCCCUCAGAGCUCGAGAACAUCUUCGGAUGCAGAGGAGGCAGGCUUCGGUGGCGCGAUAGCGUCAACGUCCUCAACCUCCAAUGCAUCCCACCACAUGAUGAUGCCUGAAGAGCUUUGGUUUUUUA [C72U C124U G135A] | 2.03
GACCAAUCUGCCCUCAGAGCUCGAGAACAUCUUCGGAUGCAGAGGAGGCAGGCUUCGGUGGCGCGAUAGCGUCAACGUCCUCAACCUCCAAUGCAUGCCACCACAUGAUGAUGCCUGAAGAGCCUUGGUUUUUUG [C72U C97G] | -4.65
GACCAAUCUGCCCUCAGAGCUCGAGAACAUCUUCGGAUGCAGAGGAGGCAGGCUUCGGUGGCGCGAUAGCGUCAACGUCCUCAACCUCCAAUGCAUACCACCACAUGAUGAUGCCUGAAGAGCCUUGGUUUUUUG [C72U C97A] | -5.06
GACCAAUCUGCCCUCAGAGCUCGAGAACAUCUUCGGAUGCAGAGGAGGCAGGCUUCGGUGGCGCGAUAGCGUCAACGUCCUCAACCUCCAAUGUAUCCCACCACAUGAUGAUGCCUGAAGAGCCUUGGUUUUUUG [C72U C94U] | -0.599
GACCAAUCUGCCCUCAGAGCUCGAGAACAUCUUCGGAUGCAGAGGAGGCAGGCUUCGGUGGCGCGAUAGCGUCAACGUCCUCAACCUCCAAUGCAUCCCACAACAUGAUGAUGCCUGAAGAGGCUUGGUUUUUUG [C72U C102A C123G] | -0.477
GACCAAUCUGCCCUCAGAGCUCGAGAACAUCUUCGGAUGCAGAGGAGGCAGGCUUCGGUGGCGCGAUAGCGUCAACGUCCUCAACCUCCAAUGCAUCCCACCACAUGAUGAUGCGUGAAGAGCCUUGGUUUUUUG [C72U C115G] | -2.33
GACCAAUCUGCCCUCAGAGCUCGAGAACAUCUUCGGAUGCAGAGGAGGCAGGCUUCGGUGGCGCGAUAGCGUCAACGUCCUCAACCUCCAAUGCAUCCCACCACAUGAUGAUGCUUGAAGAGCCUUGGUUUUUUG [C72U C115U] | -0.526
GACCAAUCUGCCCUCAGAGCUCGAGAACAUCUUCGGAUGCAGAGGAGGCAGGCUUCGGUGGCGCGAUAGCGUCAACGUCCUCAACCUCCAAUCCAUCCCACCACAUGAUGAUGCCUGAAGAGCCUUGGUUUUUUG [C72U G93C] | -0.856
GACCAAUCUGCCCUCAGAGCUCGAGAACAUCUUCGGAUGCAGAGGAGGCAGGCUUCGGUGGCGCGAUAGCGUCAACGUCCUCAACCUCCAAUUCAUCCCACCACAUGAUGAUGCUUGAAGAGCCUUGGUUUUUUG [C72U G93U C115U] | -2.06
GACCAAUCUGCCCUCAGAGCUCGAGAACAUCUUCGGAUGCAGAGGAGGCAGGCUUCGGUGGCGCGAUAGCGUCAACGUCCUCAACCUCCAAUGCAUCUCACCACAUGAUGAUGCCUGAAGAGCCUUGGUUCUUUG [C72U C98U U131C] | -1.05
GACCAAUCUGCCCUCAGAGCUCGAGAACAUCUUCGGAUGCAGAGGAGGCAGGCUUCGGUGGCGCGAUAGCGUCAACGUCCUCAACCUCCAAUGCAUCCCAGCACAUGAUGAUGCUUGAAGAGCCUUGGUUUUUUG [C72U C101G C115U] | -3.38
GACCAAUCUGCCCUCAGAGCUCGAGAACAUCUUCGGAUGCAGAGGAGGCAGGCUUCGGUGGCGCGAUAGCGUCAACGUCCUCAACCUCCAAUGGAUCCCACCACAUGAUGAUGCCUGAAGAGCCUUGGUUUAUUG [C72U C94G U132A] | -1.02
GACCAAUCUGCCCUCAGAGCUCGAGAACAUCUUCGGAUGCAGAGGAGGCAGGCUUCGGUGGCGCGAUAGCGUCAACGUCCUCAACCUCCAAUGCAUCCCAGCACAUGAUGAUGCCUGAACAGCCUUGGUUUUUUG [C72U C101G G120C] | -1.35
GACCAAUCUGCCCUCAGAGCUCGAGAACAUCUUCGGAUGCAGAGGAGGCAGGCUUCGGUGGCGCGAUAGCGUCAACGUCCUCAACCUCCAAUGGAUCCCACCACAUGAUCAUGCCUGAAGAGCCUUGGUUUUUUG [C72U C94G G110C] | -5.81
GACCAAUCUGCCCUCAGAGCUCGAGAACAUCUUCGGAUGCAGAGGAGGCAGGCUUCGGUGGCGCGAUAGCGUCAACGUCCUCAAUCUCCAAUUCAUCCCACCACAUGAUGAUGCCUGAAGAGCCUUGGUUUUUUG [C72U C85U G93U] | -2.45
GACCAAUCUGCCCUCAGAGCUCGAGAACAUCUUCGGAUGCAGAGGAGGCAGGCUUCGGUGGCGCGAUAGCGUCAACGUCCUCAACCUCCAAUGCAUCCCACGACAUGAUGAUGCCUGAAGAGCCUUGGUUUUAUG [C72U C102G U133A] | -5.27
GACCAAUCUGCCCUCAGAGCUCGAGAACAUCUUCGGAUGCAGAGGAGGCAGGCUUCGGUGGCGCGAUAGCGUCAACGUCCUCAACCUCCAAUGCAUCCCACAACAUGAUGAUGCCUGAAGAGCCUUGAUUUUUUG [C72U C102A G128A] | -4.14
GACCAAUCUGCCCUCAGAGCUCGAGAACAUCUUCGGAUGCAGAGGAGGCAGGCUUCGGUGGCGCGAUAGCGUCAACCUCCUCAACCUCCAAUGCAUCCCACCACAUGAUGAUGCCUGAAGAGCCUUGGUUUUUUG [C72U G77C] | -1.07
GACCAAUCUGCCCUCAGAGCUCGAGAACAUCUUCGGAUGCAGAGGAGGCAGGCUUCGGUGGCGCGAUAGCGUCAACGUCCUCAACCUCCAAUGCAUCCCACCACAUGAUGAUGCCUGAAGAGCAUUGGUUUUUUG [C72U C124A] | 1.54
GACCAAUCUGCCCUCAGAGCUCGAGAACAUCUUCGGAUGCAGAGGAGGCAGGCUUCGGUGGCGCGAUAGCGUCAACGUCCUCAACCUCCAAUGCAUCCCACCACAUGAUGAUGCCUGAAGAGCUUUGGUUUUUUG [C72U C124U] | 0.818
GACCAAUCUGCCCUCAGAGCUCGAGAACAUCUUCGGAUGCAGAGGAGGCAGGCUUCGGUGGCGCGAUAGCGUCAACGUCCUCAACCUUCAAUGCAUCCCACCACAUGAUGAUGCCUGAAGAGCCUUGGUUCUAUG [C72U C88U U131C U133A] | -0.924

Variant | polymerase ribozyme fitness (log ratio)
GACCAAUCUGCCCUCAGAGCUCGAGAACAUCUUCGGAUGCAGAGGAGGCAGGCUUCGGUGGCGCGAUAGCGUCAACGUCCUCAACCUCCAAUGCAUCCCACCACAUGAUGAUGCCUGAAGAGACUUGGUUUUUUG [C72U C123A] | 0.21
GACCAAUCUGCCCUCAGAGCUCGAGAACAUCUUCGGAUGCAGAGGAGGCAGGCUUCGGUGGCGCGAUAGCGUCAACGUCCUCAACCUUCAAUGCAUCCCACCACAUGAUGAUGCCUGAAGAGCCUUGGUUUUUUG [C72U C88U] | 0.0321
GACCAAUCUGCCCUCAGAGCUCGAGAACAUCUUCGGAUGCAGAGGAGGCAGGCUUCGGUGGCGCGAUAGCGUCAACGUCCUCAACCUGCAAUGCAUCCCACCACAUGAUGAUGCCUGAAGAGCCUUGGUUUUUUG [C72U C88G] | -0.779
GACCAAUCUGCCCUCAGAGCUCGAGAACAUCUUCGGAUGCAGAGGAGGCAGGCUUCGGUGGCGCGAUAGCGUCAACGUCCUCAACCUACAAUGCAUCCCACCACAUGAUGAUGCCUGAAGAGCCUUGGUUUUUUG [C72U C88A] | 0.024
GACCAAUCUGCCCUCAGAGCUCGAGAACAUCUUCGGAUGCAGAGGAGGCAGGCUUCGGUGGCGCGAUAGCGUCAACGUCCUCAACCUUCAAUGCAUCCCACCACAUGAUGAUGCCUGAAGAGCAUUGGUUUUUUG [C72U C88U C124A] | 0.938
GACCAAUCUGCCCUCAGAGCUCGAGAACAUCUUCGGAUGCAGAGGAGGCAGGCUUCGGUGGCGCGAUAGCGUCAACGUCCUCAACCUCCAAUGCAUCCCACCACAUGAUCAUGCCUGAAGAGCCUUGUUUUUUUG [C72U G110C G128U] | -6.47
GACCAAUCUGCCCUCAGAGCUCGAGAACAUCUUCGGAUGCAGAGGAGGCAGGCUUCGGUGGCGCGAUAGCGUCAACGUCCUCAACCUCCAAUGGAUCCCAACACAUGAUGAUGCCUGAAGAGCCUUGGUUUUUUG [C72U C94G C101A] | -2.57
GACCAAUCUGCCCUCAGAGCUCGAGAACAUCUUCGGAUGCAGAGGAGGCAGGCUUCGGUGGCGCGAUAGCGUCAACGUCCUCAACCUCCAAUGCAUCCCACCACAUGAUGAUGUUUGAAGAGCCUUGGUUUUUUG [C72U C114U C115U] | -7
GACCAAUCUGCCCUCAGAGCUCGAGAACAUCUUCGGAUGCAGAGGAGGCAGGCUUCGGUGGCGCGAUAGCGUCAACGUCCUCAACCUCCAAUGCAUCCCAACACAUGAUGAUGCAUGAAGAGACUUGGUUUUUUG [C72U C101A C115A C123A] | -3.06
GACCAAUCUGCCCUCAGAGCUCGAGAACAUCUUCGGAUGCAGAGGAGGCAGGCUUCGGUGGCGCGAUAGCGUCAACGUCCUCAACCUCCAAUGUAUCCCACCACAUGAUGAUGCCUGAAGAGCCUUUGUUUUUUG [C72U C94U G127U] | -1.75
GACCAAUCUGCCCUCAGAGCUCGAGAACAUCUUCGGAUGCAGAGGAGGCAGGCUUCGGUGGCGCGAUAGCGUCAACGUCCUCAACCUCCAAUGCAUCCCACAACAUGAUGAUGCCUGAAUAGCCUUGGUUUUUUG [C72U C102A G120U] | -2.07
GACCAAUCUGCCCUCAGAGCUCGAGAACAUCUUCGGAUGCAGAGGAGGCAGGCUUCGGUGGCGCGAUAGCGUCAACGUCCUCAACCUCCAAUGCAUCCCACCACAUGAUAAUACCUGAAGAGCCUUGGUUUUUUG [C72U G110A G113A] | -4.61
GACCAAUCUGCCCUCAGAGCUCGAGAACAUCUUCGGAUGCAGAGGAGGCAGGCUUCGGUGGCGCGAUAGCGUCAACGUCCUCAACCUCCAAUGCAUCCCACCACAUGAUGAUCCCUGCAGAGCCUUGGUUUUUUG [C72U G113C A118C] | -3.51
GACCAAUCUGCCCUCAGAGCUCGAGAACAUCUUCGGAUGCAGAGGAGGCAGGCUUCGGUGGCGCGAUAGCGUCAACUUCCUCAACCUCCAAUGCAUCCCCCCACAUGAUGAUGCCUGUAGAGCCUUGGCUUUUUG [C72U G77U A100C A118U U129C] | -2.77
GACCAAUCUGCCCUCAGAGCUCGAGAACAUCUUCGGAUGCAGAGGAGGCAGGCUUCGGUGGCGCGAUAGCGUCAACGUCCUCAACCUCCAAUGCAUCCCACCACAUGAUGAUCCCUGAAGAGCCUUGGUUUUUUG [C72U G113C] | -2.1
GACCAAUCUGCCCUCAGAGCUCGAGAACAUCUUCGGAUGCAGAGGAGGCAGGCUUCGGUGGCGCGAUAGCGUCAACGUCCUCAACCUCCAAUGCAUCCCACCAAAUGAUGAUGCCUGAAGAGCCUUGGUUUUUUG [C72U C104A] | -2.05
GACCAAUCUGCCCUCAGAGCUCGAGAACAUCUUCGGAUGCAGAGGAGGCAGGCUUCGGUGGCGCGAUAGCGUCAACGUCCUCAACCUCCAAUGCAUCCCACCACAUGAUGAUGACUGAAGAGCCUUGGUUUUUUG [C72U C114A] | -1.67
GACCAAUCUGCCCUCAGAGCUCGAGAACAUCUUCGGAUGCAGAGGAGGCAGGCUUCGGUGGCGCGAUAGCGUCAACGUCCUCAACCUCCAAUACAUCCCACCACAUGAUGAUGCUUGAAGAGCCUUGGUUUUUUG [C72U G93A C115U] | -1.52
GACCAAUCUGCCCUCAGAGCUCGAGAACAUCUUCGGAUGCAGAGGAGGCAGGCUUCGGUGGCGCGAUAGCGUCAACGUCCUCAACCUCCAAUGCAUCCCACCACAUGAUGAUACCUGAAGAGCCUAGGUUUUUUG [C72U G113A U126A] | -2.61
GACCAAUCUGCCCUCAGAGCUCGAGAACAUCUUCGGAUGCAGAGGAGGCAGGCUUCGGUGGCGCGAUAGCGUCAACGUCCUCAACCUCCAAUGCAUUCCACCACAUGAUGAUGCCUGAAAAACCUUGGUUUUUUG [C72U C97U G120A G122A] | -1.22
GACCAAUCUGCCCUCAGAGCUCGAGAACAUCUUCGGAUGCAGAGGAGGCAGGCUUCGGUGGCGCGAUAGCGUCAACGUCCUCAACCUCCAAUGCAUCCCACCACAUGAUAAUGCCUGAAGAGCCUUGGUAUUUUG [C72U G110A U130A] | -1.72
